In PMC4522599 one finds Kd and fold reduction in affinity against untreated Bet v 1d data, which are given here for two molecules.

Experiment [1] concerns the target In trans activated C25A-cathepsin S (human). The experiment is described as follows: surface acoustic wave biosensor (sam5BLUE); C25A-cathepsin S coupled by EDC/NHS to a short-chain COOH sensor chip; untreated Bet v 1 injected at increasing concentrations (5 or 10 to 100 μM); 20 mM imidazole pH 6.7, 50 mM NaCl; apparent KD from kobs by linear regression.
Experiment [2] has the same target. The experiment is described as follows: surface acoustic wave biosensor (sam5BLUE); C25A-cathepsin S immobilized; heat-destabilized Bet v 1 (10 min at 60 °C, spin-filtered) injected, 1a at 10 to 100 μM, 1d at 2.5 to 40 μM; pH 6.7.

B1: Bet v 1d (Bet v 1.0401), hypoallergenic isoform of the major birch pollen allergen (natural protein)
chain: MGVFNYEIETTSVIPAARLFKAFILDGDNLVPKVAPQAISSVENIEGNGGPGTIKKINFPEGFPFKYVKDRVDEVDHTNFKYNYSVIEGGPVGDTLEKISNEIKIVATPDGGCVLKISNKYHTKGNHEVKAEQVKASKEMGETLLRAVESYLLAHSDAYN
As for B1, the Kd in experiment [1] stood at 5.4 µM. The fold reduction in affinity against untreated Bet v 1d in experiment [2] came out at 5 fold.

B2: Bet v 1a (Bet v 1.0101), major birch pollen allergen (natural protein)
chain: GVFNYETETTSVIPAARLFKAFILDGDNLFPKVAPQAISSVENIEGNGGPGTIKKISFPEGFPFKYVKDRVDEVDHTNFKYNYSVIEGGPIGDTLEKISNEIKIVATPDGGSILKISNKYHTKGDHEVKAEQVKASKEMGETLLRAVESYLLAHSDAYN
Consider B2, for which the Kd in experiment [1] is 21.5 µM.
